Patent publication US12383631B2, “Immune antigen specific IL-18 immunocytokines and uses thereof” (Bright Peak Therapeutics AG, priority 2022, dated 2025)
Numbering of substitutions follows the chain as printed. Names may count otherwise. Blank lines part the entries; values can stand above or below the molecule they belong to.

Key:
[1] = target: T1, human IL-18BP (Homo sapiens, UniProt O95998); test: IL-18BP binding AlphaLISA assay (Example 4 / 17B); settings: IL-18 binding protein AlphaLISA
T1 sequence (O95998 31-194): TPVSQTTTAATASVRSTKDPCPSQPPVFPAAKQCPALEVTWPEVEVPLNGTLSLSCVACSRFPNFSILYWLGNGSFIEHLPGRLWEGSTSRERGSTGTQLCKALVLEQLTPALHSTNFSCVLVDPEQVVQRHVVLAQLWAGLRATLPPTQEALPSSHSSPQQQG
Description: A human IL-18BP AlphaLISA Assay Kit is used to determine the binding affinity of each immunocytokine and IL-18 variant for IL-18BP, which detected the presence of free form IL-18BP.
Sixteen three-fold serial dilutions of IL-18 analytes are prepared in aMEM medium supplemented with 20% FCS, Glutamax, and 25 μM β-mercaptoethanol in the presence of 5 ng/mL of His-tagged human IL-18BP. Final IL-18 analytes concentration range from 2778 nM to 0.2 pM.
After 1 hr incubation at room temperature, free IL-18BP levels are measured using a […]. In a 384 well OPTIplate, 5 μL of 5× Anti-IL-18BP acceptor beads are added to 7.5 μL of an IL-18/IL-18BP mix. After 30 min incubation at room temperature with shaking, 5 μL of biotinylated Anti-IL-18BP antibodies are added to each well. The plate is incubated further for 1 hr at room temperature. Under subdued light, 12.5 μL of 2× streptavidin (SA) donor beads are pipetted into each well, and the wells are incubated with shaking for an additional 30 min at room temperature. The AlphaLisa signal is then measured on an Enspire plate reader with 680 and 615 nm as excitation and emission wavelengths, respectively. The dissociation constant (KD) is calculated based on a variable slope, four parameter analysis using GraphPad PRISM software.
17B—IL-18 BP AlphaLISA assay—An IL-18 binding protein AlphaLISA experiment substantially as described in Example 4 was performed on IL-18 polypeptide which can be incorporated into immunocytokine compositions as provided herein to assess ability to bind to IL-18BP.

[2] = system: PD-1 positive (transduced) KG-1 cells; test: IFN gamma secretion assay in PD-1 transduced KG-1 cells (Example 11); type: cell-based, human; settings: ratio of EC50 in PD-1 positive and parental KG-1 cells
Description: The KG-1 cell line was used to generate a PD-1 expressing cell line and furthermore, to measure IFNγ release upon incubation with TL-18 variants and corresponding TL-18 immunocytokines.
PD-1 expressing cell line generation: Briefly, KG-1 cells were transduced using lentiviral particles carrying the human PD-1 gene (PDCD1 NM_005018; Origene, CAT #: RC210364L3V) at a MOI (Multiplicity of Infection) of 30. Spinfection was performed at 1260 g during 90 min at 37° C. in the presence of 5 μg/ml of Polybrene and 10 mM of HEPES in complete culture media (RPMI, 10% FBS, 1% L-Glutamine). […]
IFNγ release was assessed in PD-1 positive (transduced) KG-1 cells, as well as in the parental PD-1 negative cells. […] The lowest concentration assessed was 0.05 fM. After incubation, IFNγ release was measured using the LEGENDplex custom human mix and match KIT (Biolegend LEGENDplex™ Human IFN-γ Capture Bead B5, 13×#740942, LEGENDplex™ P 1 Essential Immune Response Panel Detection Abs, #740931, LEGENDplex™ Buffer Set A #740368). […] Fluorescence measurements were done with a Quanteon Flow Cytometer from Acea Biosciences. For analysis, MFI values (median fluorescence intensity) were exported and plotted against concentrations used. The EC50 values (half maximal effective concentration) were calculated based on a variable slope and four parameter analysis using GraphPad PRISM software version 9.

[3] = target: T2, human IL-18 binding protein isoform a (IL-18BPa) (Homo sapiens, UniProt O95998); test: Cellular IL-18 Binding protein resistance assay in NK-92 cells (Example 13); type: cell-based; settings: NK92 cells, IL-18 analyte 1 nM final, IL-18BPa titrated, 1 ng/ml IL-12; read-out: IC50 IL-18BP-mediated inhibition of IFNγ secretion
T2 sequence (O95998 31-194): T1 sequence (O95998 31-194)
Description: The NK cell line NK-92 derived from a patient with lymphoma (ATCC, Cat #CRL-2407) was cultured in aMEM medium supplemented with 20% FCS-Glutamax, 25 μM B-mercaptoEthanol, and 100 IU/ml of recombinant Human Interleukin-2 (TL-2). On the day of experiment, cells were harvested and washed with aMEM medium without IL-2. After counting, cells were seeded at 100 000 cells/well in a 384 well titer plate and incubated at 37° C./5% CO2. Sixteen 2-fold serial dilutions of Fc fused human IL-18 binding protein isoform a (IL-18BPa; R&D systems, Cat #119-BP) were prepared in aMEM medium-1 ng/ml IL-12 containing 2 nM of each IL-18 variants and were added to the NK-92 cells. Final IL-18 analytes concentration was 1 nM and final IL-18BPa concentrations ranged from to 566 nM down to 17 pM.
After 16-20 h incubation at 37° C./5% CO2, 5 μl of supernatant were carefully transferred to a 384 microwells OPTIplate (Perkin Elmer; Cat #6007270) and Interferon-gamma (IFNγ) levels measured using the Human IFNγ AlphaLISA Assay Kit (Perkin Elmer, Cat #AL217C). […] AlphaLisa signal was then measured on an Enspire plate reader (Perkin Elmer) using 680 and 615 nm as excitation and emission wavelengths respectively. Half maximal inhibitory concentration (IC50) was calculated based on a variable slope, four parameter analysis using GraphPad PRISM software.

B3: SEQ ID NO: 72: IL-18 polypeptide: N-terminal 4xG, E6K, V11I, C38A, K53A, T63A, C76A, C127A (protein)
chain: GGGGYFGKLKSKLSIIRNLNDQVLFIDQGNRPLFEDMTDSDARDNAPRTIFIISMYADSQPRGMAVAISVKCEKISTLSAENKIISFKEMNPPDNIKDTKSDIIFFQRSVPGHDNKMQFESSSYEGYFLAAEKERDLFKLILKKEDELGDRSIMFTVQNED
modifications: N-terminal 4xG
notes: IL-18 polypeptide: N-terminal 4xG, E6K, V11I, C38A, K53A, T63A, C76A, C127A
- Kd [1]: > 2800 nM

B4: SEQ ID NO: 30: IL-18 polypeptide: E6K, V11I, C38A, K53A, T63A, C76A, C127A (protein)
chain: YFGKLKSKLSIIRNLNDQVLFIDQGNRPLFEDMTDSDARDNAPRTIFIISMYADSQPRGMAVAISVKCEKISTLSAENKIISFKEMNPPDNIKDTKSDIIFFQRSVPGHDNKMQFESSSYEGYFLAAEKERDLFKLILKKEDELGDRSIMFTVQNED
- PD-1^pos/PD-1^neg EC50 ratio [2]: 1.336
- IC50 [3]: 488 nM

B5: SEQ ID NO: 69: IL-18 polypeptide: E6K, V11I, C38A, M51G, K53A, T63A, C76A, C127A (protein)
chain: B4 chain with M51G
- Kd [1]: > 2800 nM

The next lines start with the values.

- Kd [1]: > 2800 nM
B1: SEQ ID NO: 71: IL-18 polypeptide: N-terminal G, E6K, V11I, C38A, K53A, T63A, C76A, C127A (protein)
chain: GYFGKLKSKLSIIRNLNDQVLFIDQGNRPLFEDMTDSDARDNAPRTIFIISMYADSQPRGMAVAISVKCEKISTLSAENKIISFKEMNPPDNIKDTKSDIIFFQRSVPGHDNKMQFESSSYEGYFLAAEKERDLFKLILKKEDELGDRSIMFTVQNED
modifications: N-terminal G
notes: IL-18 polypeptide: N-terminal G, E6K, V11I, C38A, K53A, T63A, C76A, C127A

- Kd [1]: > 2800 nM
B2: SEQ ID NO: 70: IL-18 polypeptide: N-terminal G, E6K, V11I, C38A, M51G, K53A, T63A, C76A, C127A (protein)
chain: B1 chain with M52G
modifications: N-terminal G
notes: IL-18 polypeptide: N-terminal G, E6K, V11I, C38A, M51G, K53A, T63A, C76A, C127A
